Reference: PMC3775092

Target: KillerRed
Test: SEC

For KillerRed, the stoichiometry N was 2.
